For assay [1], the system named is polarized colon cancer T84 cells. Description: Transepithelial electrical resistance (TEER) permeability assay. Particulars: for Effect on TEER: 5 μg dimeric Ad3 fiber knob added 1 hour to apical chamber. The format is cell-based. The procedure:
FIG. 5. Correlation of reduced DSG2 binding with the ability to open epithelial junctions. A) Transepithelial electrical resistance (TEER) measured on polarized colon cancer T84 cells. Cells were cultured in transwell chambers until the TEER was constant, i.e. tight junctions had formed. A total of 5 μg of dimeric Ad3 fiber knobs in PBS was then added for 1 hour to the apical chamber. TEER was measured at the indicated time points. N=6. For time points 1.5 and 4 hours the difference between JO-1 vs D261N and N186D was significant (p<0.01). The arrows indicate the addition and removal of Ad3 fiber knobs. B) Enhancement of irinotecan therapy. A total of 4×10^6 A549 cells were injected subcutaneously into CB17-SCID/beige mice. Once the tumor reached a volume of ˜100 mm^3 (day 15 after implantation), the mice were injected intravenously with 2 mg/kg JO-1, E299V, N186D, or PBS, followed by an intravenous injection of irinotecan (37.5 mg/kg) one hour later. The treatment was repeated on day 25. N=5. […] The difference between “irinotecan” vs “JO-1+irinotecan” was significant (p<0.01) from day 20 on.
FIG. 9. Analysis of dimeric Ad3 fiber knob mutants with increased affinity to DSG2. A) Competition of Ad3-GFP virus infection on HeLa cells with dimeric affinity-enhanced mutant Y250F and JO-1 (dimeric wt Ad3 fiber knob). The experimental setting is as described for FIG. 3C. left panel: percentage of GFP positive cells. Right panel: mean fluorescence intensity. N=3. The standard deviation was less than 10%. B) Competition of Ad3-GFP virus infection on HeLa cells by Ad3 knob mutants with enhanced DSG2 binding but without dimerization domain. 1.5×10^5 HeLa cells were seeded into 24 well plates. Cells were incubated with the Ad3 knob mutants at the increasing concentrations for one hour at room temperature. 100 pfu/cell of Ad3GFP virus were then added and GFP expression was analyzed 18 hours later. C) TEER on colon cancer T84 cells. The experimental setting was the same as for FIG. 5A. The TEER at 4 hours is shown. N=3.
A total of 5×10^5 T84 cells were seeded in 12 mm transwell inserts (PET membrane, with 0.4 μm pore size (Corning, N.Y.) and cultured for >14 days until transepithelial electrical resistance (TEER) was stable. Culture medium was changed every 2-3 days. The cells were exposed to DSG2 ligands (20 μg/ml) in adhesion medium (DMEM, 1% FBS, 2 mM MgCl2, 20 mM HEPES) for 15 min at room temperature and TEER was measured and calculated as described elsewhere (39).

In a further assay the test system is TC1-hDSG2 tumors. The assay can be described thus: Repeated-cycle PLD therapy study in immunocompetent mice with TC1-hDSG2 tumors. It is filed as in vivo, hDSG2 transgenic mice. Particulars: 2 mg/kg i.v. one hour before PLD/Doxil 1.5 mg/kg i.v.; 3rd and 4th cycles days 28 and 35; N=10. The procedure: FIG. 11. Pharmacokinetics, toxicity, and immunogenicity of JO-4. A) Serum clearance of JO-1 and JO-4. hDSG2 transgenic mice with subcutaneous TC1-hDSG2 tumors (˜600 mm^3) were intravenously injected with JO-1 or JO-4 (2 mg/kg) and serum samples were analyzed for by ELISA. N=3. Note that the y-axis has a log scale. B) Lymphocyte and platelet counts in hDSG2/TC1-hDSG2 transgenic mice after JO-1 or JO-4 injection. N=3. C) Therapy studies in immunocompetent hDSG2 transgenic mice with TC1-hDSG2 tumors. When tumors reached a volume of ˜80 mm^3, JO-1 or JO-4 (2 mg/kg) or PBS was injected intravenously followed one hour later by PLD/Doxil (i.v. 1.5 mg/kg). Treatment was repeated as indicated by arrows. Tumors were then allowed to re-grow for about two weeks. From day 15 on serum anti-JO-1/J)-4 antibodies were detectable by ELISA. Two more treatment cycles were performed at day 28 and day 35. […] The difference between JO-1/PLD vs JO-4/PLD is significant from day 31 on. N=10.
A549, MDA-MB-231, and ovc316 xenograft tumors were established by injection of the corresponding tumor cells into the mammary fat pad (1:1 with Matrigel) of CB17 mice. […] Tumor volumes were measured three times a week. […]
JO-1 and JO-4 are virus-derived proteins and immunogenic. In immunocompetent mice, serum IgG antibodies against these proteins can be detected by ELISA two weeks after injection (5). […]

Changes are numbered by the printed parent chain. Numbers in names are those of the source. Entries after “also recorded” stand apart in the source; their conditions may differ.

B1: D261N (protein)
chain: MKVSALKEKVSALKEKVSALKEKVSALKEKVSALKEGSGGGSGGGSGGGSNSIALKNNTLWTGPKPEANCIIEYGKQNPDSKLTLILVKNGGIVNGYVTLMGASDYVNTLFKNKNVSINVELYFDATGHILPDSSSLKTDLELKYKQTADFSARGFMPSTTAYPFVLPNAGTHNENYIFGQCYYKASNGALFPLEVTVMLNKRLPDSRTSYVMTFLWSLNAGLAPETTQATLITSPFTFSYIREDD
As for B1, the “Effect on TEER” value in assay [1] was “no effect on the TEER”.

B2: JO-1: recombinant protein with the Ad3 fiber knob and a domain for self-dimerization of trimeric knobs (SEQ ID NO:27) (protein)
chain: B1 chain with N188D
On to B2, for which the “Effect on TEER” value in assay [1] is given as “rapid decrease in the TEER”. Further, in the assay on TC1-hDSG2 tumors, the “Enhancing effect on PLD therapy over repeated treatment cycles” value is reported as “enhancing effect on PLD therapy; also recorded: continued to be effective after multiple treatment cycles”.

B3: JO-4 (protein)
chain: B1 chain with Y177F, N188D
Turning to B3, the “TEER compared to JO-1” value in assay [1] (dimeric affinity-enhanced mutants, TEER at 4 hours, N=3) is listed as “significantly higher”. Besides, in the assay with TC1-hDSG2 tumors, the “Enhancing effect on PLD therapy over repeated treatment cycles” value was “enhancing effect on PLD therapy; also recorded: significantly stronger; also recorded: continued to be effective after multiple treatment cycles”.
